PMC7943553 (2021)
Substitutions are numbered along the chain they refer to.

T1: P. vivax Reticulocyte Binding Protein 2b, residues 161–1454 (P. vivax strain Salvador I, UniProt A5K736 161-1454, DyLight 488 (NHS ester) in the FRET assay; biotin (BirA site) in the competition ELISA between human mAbs)
T1 chain: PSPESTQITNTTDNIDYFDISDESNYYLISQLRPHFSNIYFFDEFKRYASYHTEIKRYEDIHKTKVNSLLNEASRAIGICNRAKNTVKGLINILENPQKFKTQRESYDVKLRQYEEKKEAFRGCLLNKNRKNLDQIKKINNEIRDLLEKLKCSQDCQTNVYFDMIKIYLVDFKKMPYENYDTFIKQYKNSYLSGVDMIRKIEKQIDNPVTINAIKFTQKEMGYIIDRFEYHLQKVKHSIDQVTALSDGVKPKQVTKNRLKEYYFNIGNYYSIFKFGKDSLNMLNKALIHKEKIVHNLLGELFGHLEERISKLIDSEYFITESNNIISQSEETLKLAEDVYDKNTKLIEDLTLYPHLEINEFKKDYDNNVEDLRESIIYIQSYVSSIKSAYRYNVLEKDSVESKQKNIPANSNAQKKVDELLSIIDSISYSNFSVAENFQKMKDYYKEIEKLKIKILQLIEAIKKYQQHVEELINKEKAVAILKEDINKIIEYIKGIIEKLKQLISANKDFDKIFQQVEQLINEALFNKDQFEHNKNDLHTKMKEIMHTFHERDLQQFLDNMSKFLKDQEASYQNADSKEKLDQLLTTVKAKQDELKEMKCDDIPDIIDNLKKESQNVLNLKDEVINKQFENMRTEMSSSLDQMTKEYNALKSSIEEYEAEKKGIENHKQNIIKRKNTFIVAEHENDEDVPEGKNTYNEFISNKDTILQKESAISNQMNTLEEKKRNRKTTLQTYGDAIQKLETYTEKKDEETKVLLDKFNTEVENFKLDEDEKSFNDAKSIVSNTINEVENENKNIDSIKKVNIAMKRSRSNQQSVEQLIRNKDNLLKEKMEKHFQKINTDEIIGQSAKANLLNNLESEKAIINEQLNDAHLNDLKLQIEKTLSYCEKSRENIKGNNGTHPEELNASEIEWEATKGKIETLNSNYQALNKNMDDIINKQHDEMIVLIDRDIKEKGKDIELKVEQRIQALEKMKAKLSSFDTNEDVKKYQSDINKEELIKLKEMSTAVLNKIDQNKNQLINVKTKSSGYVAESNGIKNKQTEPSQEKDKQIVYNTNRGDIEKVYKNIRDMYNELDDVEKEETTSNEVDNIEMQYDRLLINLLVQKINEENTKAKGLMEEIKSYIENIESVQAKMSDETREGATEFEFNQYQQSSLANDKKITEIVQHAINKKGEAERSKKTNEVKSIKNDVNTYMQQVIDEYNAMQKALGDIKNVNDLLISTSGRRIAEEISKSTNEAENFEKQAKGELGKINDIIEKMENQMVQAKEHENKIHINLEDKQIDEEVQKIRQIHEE

B1: PvRBP2b human mAb 241242 (antibody, V domains shown)
VH: EVQLLESGGGLVQPGGSLRLSCAVSGFTFRNYALSWVRQAPGKGLDWVSTISASGGATYYADSVKGHFTISRDNSKNILYLDMKSLRAEDTAIYYCARDGGSYTPYFFLDSWGQGALVTVSS
VL: SYELTQPASVSVAPGQTAQITCGGNSIGRKSIHWYQHKPGQAPVLVISYDSDRPSGIPERFSGSNSGNTATLTISKVEAGDEADFYCQVRDSDNDHVVFGGGTKLTVL
B2: PvRBP2b human mAb 251249 (antibody, V domains shown)
VH: EVQLVESGGGLVKPGGSLRLSCEASGFLFSSYSMNWVRQAPGKGLEWVSSITGYSSEVFYTDSVKGRFTVSRDNSKNSLYLQMDSLRAEDTAVYYCARALTIFGVVITDYWFFDLWGRGTLVTVSS
VL: EIVLTQSPATLSLSPGDRATLSCRASQSVTTFLAWYQQKPGQAPRLLIYDVSNRATGIPARFSGSGSGTDFTLTISSLEPEDFAVYYCQQRSNWGLTFGGGTKVEIK
B3: PvRBP2b human mAb 273264 (antibody, V domains shown)
VH: EVQLLESGGGLVRPGGSQRLSCAASGFTFTPYAMTWVRQAPGKGLEWLSTISGSGGSTSYADSVKGRFTISRDNSKNILYLQMDSLRAEDTALYYCTKDKDEYTFGHNAFDVWGRGTMVTVSS
VL: SYELTQAPSVSVAPGQTARITCGGDNIGRTSVHWYQQKPGQAPVLVIFYDNDRPSGIPERFSGSNSGNMATLSISRVEVGDEADYYCQVWDSNNDHPVFGGGTKLTVV
B4: PvRBP2b human mAb 258259 (antibody, V domains shown)
VH: B3 VH with S59Y, I78M, D84N, R87T, R115Q
VL: B3 VL with T30K, S31T, H33N, F48Y
B5: PvRBP2b human mAb 253245 (antibody, V domains shown)
VH: EVQLVQSGAEVKKPGSSMKVSCKASGGTFNRYVFSWVRQAPGQGLEWMGGILPILETTYYAKNFKGRVTITADESTSTVYMELSSLTSEDTAVYFCARDEHDYVWGSYRPSLTGPWGQGTLVTVSS
VL: QSALTQPPSTSGSPGQSVTISCTGTGIDVGGFSYVSWFQYHPGKAPKLIIFEVTKRPSGVPDRFSGSKSGNTASLTISGLQADDEAEYYCSSYAVNNNFVFGTGTKVTVL
B6: PvRBP2b human mAb 243244 (antibody, V domains shown)
VH: QVQLVESGGGVVQSGKSLRVSCAASGFTFSSYGMHWVRQAPGKGLEWVAFISYDGDNKYSADSVKGRLTISRDNSKNTLYLQMNSLRPEDTAVYYCAKESNYGENAFDIWGQGTMVTVSS
VL: QSALTQPRSVSGSPGQSVTISCTGTSSDVGFYNFVSWYQHHPGKAPKLIIYDVSERPSGVPDRFSGSKSGNTASLSISGLQPEDEADYYCCSYAGTYTFVFGSGTKVTVL
B7: PvRBP2b human mAb 237235 (antibody, V domains shown)
VH: QVQLVESGGGVVQPGRSLRLSCAASGFMFNSYGMHWVRQAPGKGLEWMAFISYDGSDDYYGDSVKGRITISRDNSKNTLFLHINSLRTEDTAVYYCAKESNYGENAFDVWGHGTMVTVSS
VL: B6 VL with S27N, I49M, S54T, S76T, P82A, D87E, S103H
B8: PvRBP2b human mAb 283284 (antibody, V domains shown)
VH: QVQLQQWGAGLLKPSETLALTCTVYGGSSSGYYWNWIRQSPGKGLEWIGEISDSGSTIYNPSLESRVTMSVDTSKNQFSLKLTSVTAADTAVYYCAKAILTRYNWLDPWSQGTLVTVSS
VL: DIVMTQSPSSLSASVGDRISISCRASQGVNSALAWYQQKPGKAPKLLIYDASTLESGVPSRFSGSGSGTDFALTINSLQPEDFATYYCQQFNSYPLTFGGGTKVEIK

Assays:
[1] = target: T1, P. vivax Reticulocyte Binding Protein …; assay: BLI; representative sensorgram
[2] = target: T1, P. vivax Reticulocyte Binding Protein …; assay: BLI
[3] = target: T1, P. vivax Reticulocyte Binding Protein …; assay: BLI

Row | Binder | Kd [1] [nM] | Kd [2] [nM] | koff [3] [s⁻¹]
1 | B1 | < 0.01 | 0.061 | 2.13e-05
2 | B2 | < 0.01 | < 0.01 | < 1e-06
3 | B3 | < 0.01 | 0.083 | 3.02e-05
4 | B4 | < 0.01 | 0.0269 | 7.57e-06
5 | B5 | < 0.01 | 0.0307 | 8.17e-06
6 | B6 | < 0.01 | 0.0366 | 1.15e-05
7 | B7 | 0.1 | 0.0883 | 3.45e-05
8 | B8 | 0.1 | 0.246 | 6e-05
